Reference: the supplement of paper PMC10724198
± gives the standard deviation of the averaged measurements.

Tested on: Saccharomyces cerevisiae
Experiment: protein stability index of tFT-peptide fusion (C-terminal peptide) (PSI (0-1 scale)); higher = more stable (slower turnover)
Details: genetic background: wild type; temperature: 30 C
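Note: PSI is a weighted mean of sequencing reads over stability bins, variants kept only with over 10 reads, mCherry proximal and sfGFP distal, peptide attached via GGGS linker.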

Row | Sequence | protein stability index
1 | SAFGGAGVLGHR | 0.6799 ± 0.0027
2 | SAIAVDSPLGRG | 0.653 ± 0.023
3 | SALGPVLCRGSY | 0.675 ± 0.067
4 | SALSLDNLIHSY | 0.676 ± 0.071
5 | SAPALPCQSPRL | 0.696 ± 0.011
6 | SAPCHAHHLPYQ | 0.73 ± 0.026
7 | SAPPLFPCPSPA | 0.68 ± 0.03
8 | SARPTVNRPARN | 0.6933 ± 0.0049
9 | SARVVCSSCFPM | 0.668 ± 0.017
10 | SAVLLLNAGGLV | 0.688 ± 0.0071
11 | SAVVPACIPKCE | 0.694 ± 0.035
12 | SAWHRGCSCHLC | 0.682 ± 0.029
13 | SAWVGVGHGRVS | 0.6113 ± 0.0056
14 | SAYQDFTAILLG | 0.703 ± 0.16
15 | SCGVTRVGALST | 0.664 ± 0.013
16 | SCGYRGSSAFSF | 0.62 ± 0.2
17 | SCIRATGSNVSP | 0.664 ± 0.029
18 | SCKLSPLGLLLL | 0.618 ± 0.016
19 | SCLGGRISSRCG | 0.69 ± 0.017
20 | SCPSLPPPPPCL | 0.735 ± 0.04
21 | SCQISVRLHVSH | 0.612 ± 0.016
22 | SCQSPSSQEYST | 0.751 ± 0.056
23 | SCRKGLSPRPPS | 0.7 ± 0.007

Row | Sequence | protein stability index
24 | SCSFPPSPFLCG | 0.677 ± 0.03
25 | SCSLGIRSFFSL | 0.7 ± 0.021
26 | SCTRASSMSLSP | 0.674 ± 0.024
27 | SCVAGSSHWTSI | 0.712 ± 0.24
28 | SCVTLTGLSGDK | 0.698 ± 0.016
29 | SCWHRNRKIILD | 0.573 ± 0.056
30 | SDFGSFRFRSIV | 0.5773 ± 0.0018
31 | SDKVLSSTEIQN | 0.719 ± 0.039
32 | SDNIKIPKEKRK | 0.668 ± 0.026
33 | SEGCASLSGRVG | 0.665 ± 0.047
34 | SEGCPILALVKP | 0.638 ± 0.035
35 | SEHSTYFSRNCF | 0.726 ± 0.032
36 | SEIFTNALLISI | 0.651 ± 0.026
37 | SEIKVIMNESKS | 0.679 ± 0.009
38 | SEIRIQTFETGG | 0.671 ± 0.061
39 | SEWFETRNPMSI | 0.685 ± 0.096
40 | SEYPCSDRAEVA | 0.65 ± 0.017
41 | SFASGFFVVKDF | 0.658 ± 0.031
42 | SFCHWHLFPPRS | 0.711 ± 0.041
43 | SFFLSFFSPLVL | 0.63 ± 0.038
44 | SFFSPFPSRICS | 0.829 ± 0.032
45 | SFHIAARFRSLP | 0.719 ± 0.062
46 | SFLFDSPYFVAI | 0.699 ± 0.018

Row | Sequence | protein stability index
47 | SFLPRVVVRSTP | 0.667 ± 0.015
48 | SFLSMDANDLLS | 0.7 ± 0.029
49 | SFLVPRARPVLL | 0.688 ± 0.041
50 | SFMVISSGSSVR | 0.725 ± 0.023
51 | SFNLFFVVSPAL | 0.608 ± 0.097
52 | SFPRPPSSPSPL | 0.714 ± 0.021
53 | SFRASVSAPCLF | 0.683 ± 0.067
54 | SFRFVLVQCSGV | 0.5601 ± 0.0046
55 | SFSFPPHPLKSL | 0.723 ± 0.1
56 | SFVECVDVMGRW | 0.757 ± 0.056
57 | SFYSSPTVPFLP | 0.717 ± 0.044
58 | SGAGGGVWWGGV | 0.73 ± 0.0092
59 | SGAGRRMGGARE | 0.657 ± 0.051
60 | SGAIDRSAYIDG | 0.622 ± 0.028
61 | SGCGVRFLLCRL | 0.801 ± 0.065
62 | SGCIYLLQTPME | 0.636 ± 0.012
63 | SGCSWRGSPVKE | 0.636 ± 0.0076
64 | SGGGCVYRGGRG | 0.633 ± 0.015
65 | SGHELLGSVFRR | 0.681 ± 0.076
66 | SGIILEKGGGGN | 0.679 ± 0.026
67 | SGLGRLRSGRVL | 0.698 ± 0.012
68 | SGLRHLLPSGHN | 0.711 ± 0.041
69 | SGLRLQLLVGHT | 0.632 ± 0.013

Row | Sequence | protein stability index
70 | SGNALSGVIRNC | 0.783 ± 0.045
71 | SGPGGWNREVGR | 0.6841 ± 0.0024
72 | SGPHIAFYTSCP | 0.73 ± 0.053
73 | SGRAGAPSVIRR | 0.694 ± 0.053
74 | SGRDWYHSLGGA | 0.742 ± 0.052
75 | SGRGLPLGGAFD | 0.727 ± 0.026
76 | SGRSQHFVSFLR | 0.664 ± 0.018
77 | SGRSSQNHRCWI | 0.684 ± 0.012
78 | SGSGGGGMRLGS | 0.701 ± 0.026
79 | SGSGLRIIRSSP | 0.657 ± 0.011
80 | SGSIRHSSPLPT | 0.75 ± 0.12
81 | SGTRIQFRLGMS | 0.723 ± 0.064
82 | SGVAAGLVAGSL | 0.673 ± 0.12
83 | SGVIRLRAVELF | 0.5726 ± 0.0017
84 | SGVKKGRSEGKR | 0.629 ± 0.051
85 | SGVSICLSGMGK | 0.611 ± 0.017
86 | SGWASVCARAAI | 0.745 ± 0.06
87 | SGWRYPFGCGAS | 0.763 ± 0.1
88 | SGYWWIYMSELS | 0.666 ± 0.019
89 | SHILPCTCPLAA | 0.574 ± 0.044
90 | SHLPPPSRFSSD | 0.677 ± 0.077
91 | SHPPPTLLSYLP | 0.746 ± 0.0079
92 | SHPRHSHLPFSP | 0.725 ± 0.079

Row | Sequence | protein stability index
93 | SHRTHPAAPHAP | 0.738 ± 0.056
94 | SHSRRSNMTLFV | 0.721 ± 0.073
95 | SHTNVILQDVTI | 0.655 ± 0.087
96 | SIDPAEFSSTLP | 0.7125 ± 0.0029
97 | SIEEKRNKIDKI | 0.769 ± 0.2
98 | SIENEYAMERKK | 0.707 ± 0.056
99 | SIKDKFIVITLK | 0.629 ± 0.11
100 | SIKKQLQKKKQK | 0.743 ± 0.1
101 | SIKNTQRFKIRN | 0.663 ± 0.034
102 | SIRGNGCVVCGT | 0.708 ± 0.093
103 | SISPWFFFFLDW | 0.579 ± 0.014
104 | SISSFLSLLFFR | 0.639 ± 0.062
105 | SIVRRVRDRIGR | 0.641 ± 0.038
106 | SIWLPPSRPPPS | 0.766 ± 0.015
107 | SKGISARLAREG | 0.653 ± 0.038
108 | SKKHIKKKQKRK | 0.687 ± 0.053
109 | SKKKKRRKEQEK | 0.745 ± 0.03
110 | SKLTRHVDLHGS | 0.6898 ± 0.0017
111 | SKLTSRPLSKVP | 0.718 ± 0.048
112 | SKQGNKADGCAK | 0.603 ± 0.054
113 | SKRQKKENLKET | 0.633 ± 0.044
114 | SKRRLTGYRKTK | 0.669 ± 0.052
115 | SKSDRNMQTIHY | 0.605 ± 0.067

Row | Sequence | protein stability index
116 | SKYKITIYWREE | 0.568 ± 0.0096
117 | SLAAPFPSLPNF | 0.652 ± 0.036
118 | SLAASPPSPLLP | 0.63 ± 0.09
119 | SLAFSVFWSIFL | 0.585 ± 0.015
120 | SLALASTLRLPP | 0.69 ± 0.047
121 | SLASHVLSRPTL | 0.7 ± 0.047
122 | SLCRQHSVFSLA | 0.653 ± 0.044
123 | SLDILVSVDGRL | 0.6546 ± 0.001
124 | SLERWNPGGSGV | 0.656 ± 0.025
125 | SLGLSRSRLPKN | 0.682 ± 0.043
126 | SLHPSPPPLLPP | 0.642 ± 0.093
127 | SLIPSRSLGFLH | 0.65 ± 0.05
128 | SLLPPRLPPPPF | 0.633 ± 0.016
129 | SLLPSHFASFSP | 0.744 ± 0.03
130 | SLLRLFFLALSY | 0.542 ± 0.071
131 | SLLSFLLRSFFP | 0.722 ± 0.065
132 | SLMCFDLSTFLG | 0.634 ± 0.08
133 | SLMLPIFLPLSR | 0.698 ± 0.04
134 | SLPAPRLGCIPC | 0.64 ± 0.044
135 | SLPFCFIPVAPF | 0.756 ± 0.058
136 | SLPGPRTELPLA | 0.644 ± 0.034
137 | SLPLLSLPLLDF | 0.535 ± 0.02
138 | SLPPHHLLISNA | 0.645 ± 0.028

Row | Sequence | protein stability index
139 | SLPPPSSHPPPL | 0.7 ± 0.09
140 | SLPQYPSGPTLT | 0.709 ± 0.029
141 | SLQEIWRSKAKV | 0.676 ± 0.054
142 | SLRESTPFCSRP | 0.553 ± 0.18
143 | SLRLSRFLLTAP | 0.5536 ± 0.0031
144 | SLRPPSTFRRSC | 0.71 ± 0.019
145 | SLRPRPSLFPPP | 0.7196 ± 0.00099
146 | SLSPLLVILANL | 0.613 ± 0.05
147 | SLSTSFSSRPPS | 0.704 ± 0.089
148 | SLTAPPNLASPW | 0.705 ± 0.089
149 | SLTENRGRKKKK | 0.664 ± 0.0082
150 | SLVLLNQHARER | 0.79 ± 0.036
151 | SLVLRPTGILLI | 0.536 ± 0.019
152 | SLWRLKESYRQS | 0.673 ± 0.039
153 | SLWTDALFLCLT | 0.727 ± 0.19
154 | SMVGCVKTPIEQ | 0.659 ± 0.023
155 | SMVGYPLPVSRN | 0.671 ± 0.039
156 | SMVRYNDFPRPL | 0.689 ± 0.081
157 | SNNWLEKTGAMT | 0.659 ± 0.03
158 | SNPCLPPPSFAS | 0.77 ± 0.019
159 | SNPFPTILSSSS | 0.736 ± 0.037
160 | SNQKLLGQDIDN | 0.659 ± 0.024
